Data set [1] has as its target human Tipin, N-terminal 10xHis tag, co-expressed with Timeless (human) (UniProt Q9BVW5). Nature of the data set: native MS + SEC-MALS; purified Timeless-Tipin complex; nanoESI-MS in 0.20 M ammonium acetate pH 7.0, 5-10 μM; SEC-MALLS. Background: SEC sorts molecules by how far they enter the pores of the column.
Data set [2] concerns the molecule itself. Nature of the data set: SEC-MALS; Superdex 200 Increase 10/300, 25°C, 1-2 mg/ml (100 μl injection), 25 mM Hepes 7.2, 150 mM KCl, 50 mM Arginine, 50 mM Glutamate.

human Tipin, N-terminal 10xHis tag, co-expressed with Timeless (human), sequence (Q9BVW5 whole entry): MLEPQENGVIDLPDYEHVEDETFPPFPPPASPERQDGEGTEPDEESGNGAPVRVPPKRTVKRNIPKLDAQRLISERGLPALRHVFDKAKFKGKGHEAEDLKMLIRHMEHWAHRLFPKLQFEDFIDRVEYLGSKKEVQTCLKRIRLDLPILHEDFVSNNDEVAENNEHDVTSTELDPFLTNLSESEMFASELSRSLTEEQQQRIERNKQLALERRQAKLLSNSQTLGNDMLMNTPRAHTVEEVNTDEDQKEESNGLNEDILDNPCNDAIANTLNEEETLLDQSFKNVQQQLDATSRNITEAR

Take “human Timeless, full-length, N-terminal twin-strep tag, co-expressed with Tipin (from UniProt Q9UNS1 1-1208) (natural protein)”: the stoichiometry N (Timeless:Tipin) in data set [1] was determined as 1.

B1: TimN(Δ239-330): Timeless 1-463 with residues 239-330 replaced by the linker GSTGST (domain or fragment, human)
chain: MDLHMMNCELLATCSALGYLEGDTYHKEPDCLESVKDLIRYLRHEDETRDVRQQLGAAQILQSDLLPILTQHHQDKPLFDAVIRLMVNLTQPALLCFGNLPKEPSFRHHFLQVLTYLQAYKEAFASEKAFGVLSETLYELLQLGWEERQEEDNLLIERILLLVRNILHVPADLDQEKKIDDDASAHDQLLWAIHLSGLDDLLLFLASSSAEEQWSLHVLEIVSLMFRDQNPEQLAGVGGSTGSTQRRSALNVRLFLRDFCSEFLENCYNRLMGSVKDHLLREKAQQHDETYYMWALAFFMAFNRAASFRPGLVSETLSVRTFHFIEQNLTNYYEMMLTDRKEAASWARRMHLALKAYQELLATVNEMDISPDEAVRE
notes: human Timeless, residues 1-238; 6-residue linker in place of residues 239-330; human Timeless, residues 331-463; Dimer in solution and in the crystal; the authors think the dimer is likely an artifact of construct design; also called Timeless(1-463_(Δ239-330)); source: E. coli Rosetta2(DE3), purified (Ni-NTA, HiTrap Q, SEC)
One may read the stoichiometry N as the number of molecules, sites or subunits per partner or assembly. Consider B1, for which the “stoichiometry N” value in data set [2] turned out to be 2.
